This is an account of results in patent US20190023785A1 (SHANGHAI JIAOTONG UNIVERSITY, published 2019).

The target in assay [1] is GLP-1R expressed on CRE-Luc/GLP-1R HEK293 cells.
Assay [2] concerns the target T1, hFcRn&b2M protein (human, UniProt P61769 21-119, limits assumed).
T1 construct: also called hFcRn&β2M; human FcRn protein
Kind of assay: binding affinity to hFcRn & b2M at pH 6.0, method not named; pH 6.0; soluble hFcRn & b2M as ligand.

T1 sequence (chain, as listed by the source limits assumed, chain 1 of 2): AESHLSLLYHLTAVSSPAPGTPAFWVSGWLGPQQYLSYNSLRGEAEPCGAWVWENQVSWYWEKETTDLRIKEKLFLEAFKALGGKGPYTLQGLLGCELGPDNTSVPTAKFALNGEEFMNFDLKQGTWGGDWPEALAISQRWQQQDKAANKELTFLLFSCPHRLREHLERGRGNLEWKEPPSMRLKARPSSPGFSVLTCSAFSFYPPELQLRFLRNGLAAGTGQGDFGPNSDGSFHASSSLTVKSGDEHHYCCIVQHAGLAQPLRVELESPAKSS
T1 sequence (P61769 21-119 limits assumed, chain 2 of 2): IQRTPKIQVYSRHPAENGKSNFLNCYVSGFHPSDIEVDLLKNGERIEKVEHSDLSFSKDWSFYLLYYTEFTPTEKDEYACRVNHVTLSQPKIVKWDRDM

GLP-1 (peptide): the EC50, relative luciferase activity in CRE-Luc/GLP-1R HEK293 reporter cells in assay [1] turned out to be 3.89 nM.

B1: FnAb12 single chain antibody (scFv)
scFv: DIQLTQSPSSLSASVGDRVTLTCQATQDIDNNLNWYQQKPGKAPKLLIYDASNLETGVPSRFSGSGSGTDFTFTISDLQPEDVATYYCQQYYNLPLTFGGGTKVDIKRSRGGGGSGGGGSGGGGSLEMAEVQLVQSGAEVKKPGASVKVSCKASGYTFTSYDINWVRQATGQGLEWMGWMNPNSGNTGYAQKFQGRVTMTRNTSISTAYMELSSLRSEDTAVYYCARGVDLGDGWGQGTLVTVSS
notes: Single chain antibody from a phage library
As to B1, the dissociation constant Kd (commonly a measure of binding affinity in units of concentration) in assay [2] came out at 15 nM.
